Results on two molecules are retold here after patent US6905846.

In data set [1] the target is recombinant factor X (rFX), expressed in CHO cells from human factor X cDNA (human) (UniProt P00742). The data set can be described thus: cell-based or functional assay.
In data set [2] the target is T1, recombinant FX deletion mutant having the furin cleavage site Arg-Val-Thr-Arg/Ile (rFXΔ^RVTR/I).
T1 chain: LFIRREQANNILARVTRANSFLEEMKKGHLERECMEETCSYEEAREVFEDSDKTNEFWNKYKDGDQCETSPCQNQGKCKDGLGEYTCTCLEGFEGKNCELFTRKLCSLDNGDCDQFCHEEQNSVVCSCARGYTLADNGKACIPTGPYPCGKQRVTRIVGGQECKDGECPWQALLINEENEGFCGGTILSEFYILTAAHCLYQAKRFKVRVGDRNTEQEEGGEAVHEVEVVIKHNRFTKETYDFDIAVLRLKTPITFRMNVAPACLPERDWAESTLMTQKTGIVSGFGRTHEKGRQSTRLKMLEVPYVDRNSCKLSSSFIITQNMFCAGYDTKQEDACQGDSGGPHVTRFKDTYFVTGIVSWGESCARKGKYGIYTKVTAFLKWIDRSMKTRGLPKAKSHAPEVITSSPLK

As to “rfurin ÿTM6xHis (r-furin derivative, as CHO cell culture supernatant; patent application EP 0 775 750) (from UniProt P09958 108-707) (enzyme)”, in data set [1], the functional portion of rFX (%), incubation 0 days stood at 61%; the functional portion of rFX (%), incubation 1 day turned out to be 73%; the functional portion of rFX (%), incubation 2 days stood at 79%; the functional portion of rFX (%), incubation 3 days amounted to 81%. Further, the functional portion of rFX (%), incubation 4 days in data set [1] worked out at 86%.

B1: r-furinÿCys-spacer-10xHis (purified r-furin derivative; patent application EP-0 775 750-A2) (protein)
chain: DVYQEPTDPKFPQQWYLSGVTQRDLNVKAAWAQGYTGHGIVVSILDDGIEKNHPDLAGNYDPGASFDVNDQDPDPQPRYTQMNDNRHGTRCAGEVAAVANNGVCGVGVAYNARIGGVRMLDGEVTDAVEARSLGLNPNHIHIYSASWGPEDDGKTVDGPARLAEEAFFRGVSQGRGGLGSIFVWASGNGGREHDSCNCDGYTNSIYTLSISSATQFGNVPWYSEACSSTLATTYSSGNQNEKQIVTTDLRQKCTESHTGTSASAPLAAGIIALTLEANKNLTWRDMQHLVVQTSKPAHLNANDWATNGVGRKVSHSYGYGLLDAGAMVALAQNWTTVAPQRKCIIDILTEPKDIGKRLEVRKTVTACLGEPNHITRLEHAQARLTLSYNRRGDLAIHLVSPMGTRSTLLAARPHDYSADGFNDWAFMTTHSWDEDPSGEWVLEIENTSEANNYGTLTKFTLVLYGTAPEG
In the case of B1, the “processing/activation of rFXΔ^RVTR/I (Western blot; 6, 24, 48, 72 hours at 37° C.)” value in data set [2] is “In the presence of the r-furin derivative (FIG. 10A), a 35 kD protein band appears already after 6 hours of incubation (lane 5), which corresponds to the form of the FX heavy chain”.
